Experimental data: the domain aggregation screens of Martell et al. (2025)

Assay: soluble fraction after stress (log2 fold change); higher = more stays soluble; pooled small domains, quantitative proteomics
Settings: stress: pH 4
How it was run: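 Aggregation propensity here comes from the fold change in the soluble amount of each small protein domain after acid stress, measured in pooled custom libraries by high-throughput quantitative proteomics. The acid stress was pH 4. On the log2 scale, higher values mean more of the domain stayed soluble.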

Compared with “HMRMTKQRQAVLDELTRVTDFRSAQQIFEDLHSQGHRVGLATIYRSLQGLAEDGSVDTLRSSDGESLY”, “HMRMTRQRKVILEELGKVYTHPTADEIYTMVKEKLPNISLGTVYRNLDLLAENNQVLKLETAGNIRRYD” is lower in “soluble fraction (log2)” value: -0.169 for the first, -0.375 for the second.

Going from “HMRMYDVNEYSDEELHRILDLSSPTDSELEARILQMIQKYKYTNGGDNEKMAVFFENIYHHFFD” to “HMRNAAGGIYGWMTLHQVAETVKLTEEEVIAITNLPAGIPRDVSLKNIEGVNDEELRALLEAYLEKQ”, the “soluble fraction (log2)” value rises from -1.54 to -0.968.

First: HMRNISLSLRWHSGEWTADRLKSEVLALPGAMDMTVFEPQSQAYLRVEQGFDTKLLPAGIDVH
Second: HMRNNKLRRANKLKTEFENLPHIGKKRAHVLLKAFGSTENLKMTTAQALSEAAKISLKQAEEVLEAVRG
The “soluble fraction (log2)” value of the first is lower: -0.958 for the first, -0.0912 for the second.

Going from “HMRNQIRAVITPVPNQERYTVEMTIDDDAGNLLTLQMAAPDRQQAAEFAQRFQKHPEALYHAVLSVLL” to “HMRNSFTVENTGERLDVFLTGQMPEFSRSHIQKLIASGQAWVNGVNRKGNFKLKPHDVVELEVPEPE”, the “soluble fraction (log2)” value rises from -0.191 to 0.169.

Going from “HMRNSVQREWIYDYIQRQDAHLSADEIYEGLLKEGKNISLATVYRNLSILVDEYKIASVMTDSKKQVYDK” to “HMRNTPQRRHAILALLSEQGEVSVDALAKRFSTSEVTIRKDLAAMESHGLLLRRYGGAVPMPQELI”, the “soluble fraction (log2)” value rises from -0.327 to 0.0719.

“HMRPEVALSSRELEILEALATGKSNKELAQRLFISEATVKTHLIHIYQKLGVDTRTAAVTVARERKL” and “HMRPEVTEHLKTADAILHGGDINRQSIVDELRQYAPLYIVRGNNDKDWAEAIPHDLTVTLGGVTFFMVHNR” are within 0.2 log units of each other in “soluble fraction (log2)” value: -0.431 for the first, -0.42 for the second.

“HMRPFAMNLLEKHKADIEVWLKHPNMTNTQIKRLLEELGTSVSVSSIDRFISTSFPKLPKHT” and “HMRPIWVQLADDFRHRIVSGQWPPGSKIPSVRELAAETGVNPNTVQRALGALDGEGLTATERTAGRFVTT” are within 0.2 log units of each other in “soluble fraction (log2)” value: -0.207 for the first, -0.0115 for the second.

Going from “HMRPKVADIDYFDGKTFTIEDGSKHSITTSEAKKIYFYLVKNGYVDDESHVTDAYRSAATSGTLA” to “HMRPQELSSLNTNQMRLYNSLPEAFITAEAKDIADKLRYSERSLFRFLNESNLFTKTEHGSYAKKA”, the “soluble fraction (log2)” value falls from -0.0612 to -0.585.

Compared with “HMRPQYVDLFTKLSAEEAGAITSKLKELKVEYQLADNGSTIKVPQKDAAEIRLELANEGLPA”, “HMRPRQDRSEETRDRILDAVVELIAERGLAGVSHRAVADRAGVSLSATSYYFGSKAELERAALEEHYRR” is lower in “soluble fraction (log2)” value: -0.283 for the first, -0.992 for the second.

Going from “HMRPSGEAVNAAYRLLKGANPSGNEGDLIQRAQEVAAILPKLNRSSAAAFAKDAKANGLTQAETIALWKGS” to “HMRPTYRTRLEVLINNPAISGRDLDFAQSLLSYYERKGRLSAGRVKWVTTLEERYSPENLAASAAK”, the “soluble fraction (log2)” value falls from 0.163 to -0.306.

Going from “HMRQFEPVEGYNPYADKNELHGYEYWGAKFADSRSPEETAWIKQQIDDENEDRRFISEAGLA” to “HMRQQQISAAIKTSVNGTVDYYVRRLPERDPRGDFLEVWDDLQKVIQAAHGIQVSHDELYEYFRRLK”, the “soluble fraction (log2)” value falls from -0.446 to -1.19.

First: HMRQQSLHSLYRDHHSWLQNWLRRQLGNTWDAADLSQDTFIKVLASSQSVAEIREPRAYLLTVGKRL
Second: HMRQSDIAAAFRESILRSSKGFQYLHTRDFVTALRRRGIHLSEVEANSWIAREKTYFVDSALDHSENRLWI
The “soluble fraction (log2)” value of the first is higher: -0.0586 for the first, -0.634 for the second.

First: HMRQSIHTALQLLTPREEEVLNLLVSGKSNKQVAEHFSLSSKTIERHRSSVMRKLDASSFAQLVRIAALR
Second: HMRQYPSGVFKEEGVKAVYIHAGTPFLVIAAQYKIPLARLFEWNNLLPSTEARISQVIYLERPG
The “soluble fraction (log2)” value of the first is lower: -0.404 for the first, 0.238 for the second.

Going from “HMRRARVAGKGHFTGEDAMAVYRELEALFGETETLYLPGHRPFEAVLSKLALIGVPEKNTVPYTFAFVET” to “HMRREIRLTVTEEIVLMKFLLTQIPYKNRDNFKTLLNDRQIRVNGSVVTWYNHPLKPGQEVTIGWFKM”, the “soluble fraction (log2)” value rises from -1.09 to -0.628.

“HMRRPRGVFNLVPGKRFGFITPDGGGEDVFAHLANVRAGHVAEDRNAVEYGIGRGPDGRDQAVDIVPMP” and “HMRRQRNPEIFDQLVNKFHFTFTQTQQLKQLIKRWHMLFPGKSLKSAIQGYKSAKEILTYINDSLDVVE” are within 0.2 log units of each other in “soluble fraction (log2)” value: 0.00891 for the first, 0.0668 for the second.

“HMRRRTLRQGATGSDVHAVQRLLNVDGAGLRTDGIFGPATERAVIAYQRKHGLAVDGVVGRETWTALLG” and “HMRRSDLVTQGDEILKRLQWNQQQAKDFLNQHLKASSRQQLTDEQLLNFNMLLEEQLVKSME” are within 0.2 log units of each other in “soluble fraction (log2)” value: -0.0548 for the first, -0.0311 for the second.

“HMRRSLIGPTVRERRRALGITQSRLAAEVGISASYLNLIEGDKRNIGGALLQRIAGALGLALD” and “HMRRTVIVTAAHAEIRERPDANAPLVFSAEQKVSLDYQETAPGGWVKVRHRDGQSGYVRTNQI” are within 0.2 log units of each other in “soluble fraction (log2)” value: 0.0185 for the first, -0.159 for the second.

“HMRRVGTALNRSHKVSYGESIQSIAARYNVNPTMLREYNRLKPEATITPGQILRIPPATIAS” and “HMRRVRRTRRLLQDGLLGLMQHKAVADISVKELAEAADVARATVYVHFKDPADVLHQLEQGLY” are within 0.2 log units of each other in “soluble fraction (log2)” value: -0.195 for the first, -0.151 for the second.

First: HMRSDHVFTSHLARRDKYISELESLSDSARDDHIQTIKEEDEYLLKYRRTRNLFGIPLNDEMKQFEPFNY
Second: HMRSEILNLLREKSPQPVSGQDLANHFGITRTAVWKHIQSLKKMGYGIEAYTKKGYVLVSVPN
The “soluble fraction (log2)” value of the first is lower: -1.16 for the first, 0.175 for the second.
